Measurements: patent US9376706B2, “Protease detection” (Mologic Limited, priority 2007, dated 2016)
Square brackets hold non-standard residues; d marks the D form. Ends that are not written are not given here. ANA = 2-amino naphthoic acid; 4Abz = Nc1ccc(C(=O)O)cc1

Assays:
Format in all cases: biochemical
papain = molecular target: T1, papain (Carica papaya, UniProt P00784); test: Booklet assay for detection of papain with DMAC visualisation
T1 sequence (P00784 134-345): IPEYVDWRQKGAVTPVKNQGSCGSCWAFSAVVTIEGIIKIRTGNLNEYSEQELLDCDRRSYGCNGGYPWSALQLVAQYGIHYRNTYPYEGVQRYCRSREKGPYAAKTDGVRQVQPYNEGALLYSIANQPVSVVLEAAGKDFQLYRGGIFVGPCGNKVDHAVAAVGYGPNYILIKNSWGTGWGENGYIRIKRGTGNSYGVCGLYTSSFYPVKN
Excerpt: The polypeptides of the present invention are, in some embodiments, incorporated into a product for detecting a protease enzyme in a sample which takes the form of a booklet. A suitable such booklet is disclosed in PCT application No. PCT/GB2007/000643 which is incorporated herein by reference. Referring to FIG. 3 a booklet 1 in accordance with this embodiment will now be described. The booklet comprises first and second sheets 2, 3 of planar substrate such as cardboard, connected by a hinge 4. In the centre of the first sheet there is provided a thin reaction film 25 on top of an absorbent pad 5. The reaction film 25 is impregnated with the chromogenic polypeptide and can be made from PVA. On the centre of the second sheet 3 there is provided an aperture 6 which is aligned with the reaction film 25 and the absorbent pad 5. The aperture 6 is covered by a visualisation film 7, such that the visualisation film 7 lies between the aperture 6 and the reaction film 25 when the first and second sheets 2, 3 are pressed against each other. The visualisation film 7 is impregnated with DMAC and HCl. Optionally, the reaction film 25 and the absorbent pad 5 are covered with a removable film (not shown) prior to use so that the reaction film 25 and the absorbent pad 5 are kept sealed from the environment. […]

Neutrophil Elastase [1] = molecular target: T2, Neutrophil Elastase (Homo sapiens, UniProt P08246); test: Plate assay of peptides as elastase substrates with DMAC visualisation; conditions: for suitability as elastase substrate: conclusion of Examples 3A and 3B; for result for elastase activity (well colour): 37° C., 30 minutes, pH 7.4
T2 sequence (P08246 30-267): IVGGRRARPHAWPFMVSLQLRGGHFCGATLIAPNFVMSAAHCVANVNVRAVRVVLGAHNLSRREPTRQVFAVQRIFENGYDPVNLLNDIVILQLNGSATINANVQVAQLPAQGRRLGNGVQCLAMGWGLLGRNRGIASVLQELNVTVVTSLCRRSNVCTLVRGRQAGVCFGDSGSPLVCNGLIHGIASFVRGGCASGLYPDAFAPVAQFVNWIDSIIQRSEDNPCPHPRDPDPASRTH
Description: Two peptides, AAPV-[pABA]-GGC (SEQ ID NO: 3) and AAPV-[ANA]-GGC (SEQ ID NO: 4), were synthesised, wherein pABA is para-amino benzoic acid and ANA is 2-amino naphthoic acid. Both peptides were tested for their suitability as a substrate for the Neutrophil Elastase enzyme. The electrospray mass spectrums of AAPV-[pABA]-GGC (SEQ ID NO: 3) and AAPV-[ANA]-GGC (SEQ ID NO: 4) are shown in FIGS. 10A and 10B respectively.
Varying concentrations of Elastase (5 μl of 18, 9, 6 and 3 units/ml dilutions) were added to 0.5 mg/ml peptide (5 μl) in separate plate wells. The mixtures were diluted with 20 μl of Buffer (50 mM phosphate, 5 mM EDTA; pH 7.4) and incubated at 37° C. for 30 minutes. 15 μl of working DMAC solution (0.3 mg/ml DMAC, 50 mM HCl) was added to each plate well and mixed thoroughly to visualize.

Neutrophil Elastase [2] = molecular target: T2, Neutrophil Elastase; test: Vertical flow column assay, peptide conjugated to frits, elastase, DMAC development; conditions: column with elastase, flow contact time approx. 30 seconds
Description: Another assay format was used to test for the activity of the enzyme Neutrophil Elastase in the presence of the two peptides, AAPV-[pABA]-GGC (SEQ ID NO: 3) and AAPV-[ANA]-GGC (SEQ ID NO: 4). The C-terminal cysteine group of the peptides was used as a means of conjugation to a solid surface. Sintered polyethylene frits functionalised with iodoacetyl groups were rinsed in 50 mM sodium phosphate, 5 mM EDTA, pH 7.4 for 10 minutes. The frits were then transferred to a solution of 0.5 mg/ml peptide (in PBS) for sensitisation for 30 minutes. The frits were then rinsed once more in phosphate EDTA buffer for 10 minutes. The frits were loaded into empty columns and 200 μl of elastase was added with an approximate flow contact time of 30 seconds. To develop the assay, 100 μl of working DMAC solution (0.3 mg/ml DMAC, 50 mM HCl) was passed through the column.

Substance	colour change of DMAC in booklet assay (papain; papain sample, 5 min on first sheet, read ten minutes after folding onto DMAC sheet)	rate of colour change compared with BANA (papain; papain, identical conditions, FIG. 7C)	suitability as elastase substrate (Neutrophil Elastase [1])	result for elastase activity (well colour) (Neutrophil Elastase [1]; final elastase 0.5 units/ml)	result for elastase activity (well colour) (Neutrophil Elastase [1]; final elastase 3, 1.5 or 1 units/ml)	result of vertical flow assay (column colour) (Neutrophil Elastase [2])	result for elastase activity (well colour) (Neutrophil Elastase [1]; all wells with elastase)
Val-Arg-[pABA]-Gly (VR[4Abz]G-OH; N-terminus assumed; SMILES CC(C)[C@H](N)C(=O)N[C@@H](CCCNC(=N)N)C(=O)Nc1ccc(C(=O)NCC(=O)O)cc1) [chromogenic polypeptide; pABA is para-amino benzoic acid]	changed from yellow to red	faster detectable colour change than BANA					
AAPV-[pABA]-GGC (AAPV[4Abz]GGC) [chromogenic peptide, pABA is para-amino benzoic acid]			significantly more suitable as a substrate for elastase	weak positive result	positive result	positive result	
AAPV-[ANA]-GGC (AAPV[ANA]GGC) [chromogenic peptide, ANA is 2-amino naphthoic acid]			poor elastase substrate			negative results	elastase activity was not detected
